The results in this text go back to patent US20240050583A1, “PROTEIN-DRUG CONJUGATE AND SITE-SPECIFIC CONJUGATING METHOD” (HARBOUR BIOMED (SHANGHAI) CO., LTD, priority 2020, published 2024).

For data set [1], the target named is T1, CHOK1-hCD47 cells highly expressing human CD47 (Homo sapiens, UniProt Q08722).
T1 construct: host or cells: CHOK1-hCD47 (CHO-K1)
The data set is described as follows: FACS binding to cells highly expressing CD47. Particulars: flow cytometry FACS. How it is done: The binding ability of the antigen-binding protein to CHOK1-hCD47 cells (GenScript, M00581) highly expressing human CD47 was determined by flow cytometry FACS. Specifically, the cells were digested and resuspended in a DMEM complete medium, and the cell density was adjusted to 1×10^6 cells/mL. The cells were seeded in a 96-well V-bottom plate (Corning, #3894) at 100 µL/well, followed by the addition of test binding proteins diluted in a 3-fold gradient at a concentration that was 2 times the final concentration, each at 100 μL/well. The cells were incubated at 4° C. for 1 h away from light. Thereafter, the cells in each well were rinsed twice with 100 μL of pre-cooled PBS, and centrifuged at 500 g at 4° C. for 5 min, and then the supernatant was discarded. Thereafter, a fluorescent secondary antibody (Alexa Fluor 488-conjugated AffiniPure Goat Anti-Human IgG, Fcγ Fragment Specific, Jackson ImmunoResearch Inc., #109-545-098, diluted in a 1:500 ratio) was added at 100 μL/well, and the plate was incubated at 4° C. for 30 min away from light. The cells in each well were then rinsed twice with 100 μL of pre-cooled PBS and centrifuged at 500 g at 4° C. for 5 min, and then the supernatant was discarded. […] Fluorescence signal values were read using a BD FACS CANTOII flow cytometer, and the data were processed and analyzed using FlowJo v10 (FlowJo, LLC) software.

Data set [2] is described as follows: Molecular weight and coupling product components (DAR) by LC-MS. Particulars: coupling product without HIC purification, protein 4.1 mg/mL. The text has this:
In this example, liquid chromatography-mass spectrometry (LC-MS) was used to analyze the protein sample for molecular weight. Those skilled in the art can use different models of liquid chromatography (LC) and mass spectrometer (MS) to establish similar analytical methods according to the technical instructions and through experimental exploration. Only representative methods are listed in this example.
In certain specific embodiments, determination of the molecular weight of a protein sample required desaccharification on the sample to remove modifications such as saccharide chains, for example, the sample was processed with glycosidase PNGase F (NEB, #P0705L) at 37° C. for at least 4 h. For example, in all examples of the present invention, when the molecular weight of protein samples was determined, unless otherwise emphasized, the protein samples to be tested were subjected to desaccharification by the glycosidase PNGase F.
In certain specific embodiments, determination of the reduced molecular weight of a protein sample required reduction on the sample, for example, the sample was processed with […] dithiothreitol (DTT) at 37° C. for 10 min. For example, in all examples of the present invention, the samples after reduction were called reduced samples, and the samples without reduction were called non-reduced samples.
Buffer A was 0.1% formic acid FA dissolved in water, and buffer B was 0.1% formic acid FA dissolved in acetonitrile. Injection: about 1 μg; flow rate: 0.3 mL/min; and operation temperature: 80° C. When reduced samples were tested, buffer A and buffer B were mixed within 12 min to form a linear gradient: using 10-60% B for the first 8 min and 80% B for the last 4 min. When non-reduced samples were tested, buffer A and buffer B were mixed within 9 min to form a linear gradient: using 15-60% B for the first 6 min and 80% B for the last 3 min.
Buffer A was 0.1% formic acid FA dissolved in water, and buffer B was 0.1% formic acid FA dissolved in acetonitrile. Injection: about 10 μL; flow rate: 0.2-0.5 mL/min; and operation temperature: 80° C. […]

For data set [3], the system named is NCI-H929 cells. The data set is described as follows: Cytotoxic killing experiment (Example 7.5), NCI-H929. Particulars: 72 h, CellTiter-Glo; PR001046-ADC at 0.1 μg/mL and above; PR001046 0.01-1 μg/mL; mc-vc-PAB-MMAE 0.1-10 nM. In kind it is cell-based, human. The text has this:
The data were processed and analyzed by plotting using a GraphPad Prism 8 software. In this example, multiple groups of different PR001046-ADC samples were used, including samples containing different percentages of DAR=2 (D2) components before or after purification.

In a further data set the test system is HEK293T-hBCMA cells. The data set is described as follows: Cytotoxic killing experiment (Example 9.5), HEK293T-hBCMA. Particulars: 72 h, CellTiter-Glo; proteins up to 10 nM, mc-vc-PAB-MMAE up to 20 nM. As to the method: (§1) The HEK293T-hBCMA, NCI-H929, HEK293T and SNU-16 cells were seeded in 96-well plates (Perkin Elmer, #6005225) respectively, with the following seeded cell number: 2500 cells/50 μL/well (HEK293T-hBCMA), 5000 cells/50 μL/well (NCI-H929), 2500 cells/50 μL/well (HEK293T), and 5000 cells/50 μL/well (SNU-16). Then, the plates were incubated overnight at 37° C. with 5% CO2. Then, a test sample serially pre-diluted was added at 50 μL/well. PR004433, PR004433-ADC and PR004432-ADC were diluted at a 3-fold concentration gradient from the highest final concentration of 10 nM, and mc-vc-PAB-MMAE was diluted at a 3-fold concentration gradient from the highest final concentration of 20 nM. In addition, a well without the test sample was set as a control well. Thereafter, the plates were incubated at 37° C. with 5% CO2 for 72 h, a CellTiter-Glo cell viability detection reagent (Promega, #G7573) was added, then the plates were incubated at room temperature for at least 10 min to obtain stable luminescence signals, and the luminescence values were detected using a microplate reader. The cell viability was calculated based on the luminescence values by the following formula: […]
(§2) The data were processed and analyzed by plotting using GraphPad Prism 8 software, and binding curves of the antibodies to target cells, EC50 values and other parameters were obtained through four-parameter nonlinear fitting.
Background: Cellular ATP, detected with luciferase, serves as a proxy for viable cell number.

A further data set relates to HCC1954 cells. The data set is described as follows: Cytotoxic killing experiment (Example 8.5), HCC1954. Particulars: 72 h, CellTiter-Glo; proteins up to 30 nM, mc-vc-PAB-MMAE up to 60 nM. As to the method:
This example was to study the cell killing activity of the anti-5T4 antibody coupling product PR004432-ADC against a human breast cancer cell strain HCC1954 (ATCC, CRL-2338) highly expressing human 5T4.
The HCC1954 cells were seeded in a 96-well plate (Perkin Elmer, #6005225) at 4000 cells/50 μL/well and incubated overnight at 37° C. with 5% CO2. Then, a test sample serially pre-diluted was added at 50 μL/well. PR004432, PR004432-ADC and PR004433-ADC were diluted at a 3-fold concentration gradient from the highest final concentration of 30 nM, and mc-vc-PAB-MMAE was diluted at a 3-fold concentration gradient from the highest final concentration of 60 nM. In addition, a well without the test sample was set as a control well. Thereafter, the plates were incubated at 37° C. with 5% CO2 for 72 h, a CellTiter-Glo cell viability detection reagent (Promega, #G7573) was added, then the plates were incubated at room temperature for at least 10 min to obtain stable luminescence signals, and the luminescence values were detected using a microplate reader. The cell viability was calculated based on the luminescence values by the following formula:
Cell viability (%)=(A/B)×100% […]
as §2

The test system of data set [4] is NCI-H929 cells. The data set is described as follows: Cytotoxic killing experiment (Example 9.5), NCI-H929. Particulars: 72 h, CellTiter-Glo; proteins up to 10 nM, mc-vc-PAB-MMAE up to 20 nM. How it is done:
as §1
The data were processed and analyzed by plotting using GraphPad Prism 8 software, and binding curves of the antibodies to target cells, EC50 values and other parameters were obtained through four-parameter nonlinear fitting. […]

T1 sequence (Q08722 19-323): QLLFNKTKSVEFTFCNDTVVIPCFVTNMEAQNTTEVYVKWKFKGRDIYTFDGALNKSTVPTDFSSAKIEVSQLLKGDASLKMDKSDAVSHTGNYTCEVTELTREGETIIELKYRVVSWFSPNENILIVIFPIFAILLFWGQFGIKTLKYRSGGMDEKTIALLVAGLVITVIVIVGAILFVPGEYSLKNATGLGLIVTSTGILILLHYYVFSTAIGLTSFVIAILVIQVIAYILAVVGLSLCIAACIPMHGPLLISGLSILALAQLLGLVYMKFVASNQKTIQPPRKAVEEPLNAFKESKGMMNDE

In the case of “PR006345: SIRPa-Fc fusion protein: ALX148 SIRPa variant fused with human IgG1 hinge and Fc, SEQ ID NO: 149”, the “binding activity to CD47 (CHOK1-hCD47 cells)” value in data set [1] is given as “strong specific binding activity”. Further, the “Average DAR” value worked out at 1.89 in data set [2] (Experiment 1, TCEP 1.5 equivalents); 2.23 in data set [2] (Experiment 2, TCEP 2.0 equivalents); 2.91 in data set [2] (Experiment 3, TCEP 3.0 equivalents).
With mc-vc-PAB-MMAE [reference compound], in the data set on NCI-H929 cells [3], the “cell killing of BCMA-positive cells NCI-H929” value is recorded as “cannot effectively kill”. Moreover, the “cytotoxic killing against HEK293T-hBCMA cells” value in the data set with HEK293T-hBCMA cells was “cannot produce effective killing”. For the same substance, in the data set on HCC1954 cells, the “cytotoxic killing against HCC1954 cells” value was “only has a killing effect at the highest concentration (60 nM)”. In addition, in the data set with NCI-H929 cells [4], the “cytotoxic killing against NCI-H929 cells” value is recorded as “cannot produce effective killing”.
